Results: article PMC10786891, “Massively parallel profiling of RNA-targeting CRISPR-Cas13d”
Where a chain is given by its changes, count along the chain named. Numbers in names are those of the source.

T1: EsCas13d, nuclease-dead (Eubacterium siraeum, UniProt B0MS50, R295A;H300A;R849A;H854A)
T1 sequence: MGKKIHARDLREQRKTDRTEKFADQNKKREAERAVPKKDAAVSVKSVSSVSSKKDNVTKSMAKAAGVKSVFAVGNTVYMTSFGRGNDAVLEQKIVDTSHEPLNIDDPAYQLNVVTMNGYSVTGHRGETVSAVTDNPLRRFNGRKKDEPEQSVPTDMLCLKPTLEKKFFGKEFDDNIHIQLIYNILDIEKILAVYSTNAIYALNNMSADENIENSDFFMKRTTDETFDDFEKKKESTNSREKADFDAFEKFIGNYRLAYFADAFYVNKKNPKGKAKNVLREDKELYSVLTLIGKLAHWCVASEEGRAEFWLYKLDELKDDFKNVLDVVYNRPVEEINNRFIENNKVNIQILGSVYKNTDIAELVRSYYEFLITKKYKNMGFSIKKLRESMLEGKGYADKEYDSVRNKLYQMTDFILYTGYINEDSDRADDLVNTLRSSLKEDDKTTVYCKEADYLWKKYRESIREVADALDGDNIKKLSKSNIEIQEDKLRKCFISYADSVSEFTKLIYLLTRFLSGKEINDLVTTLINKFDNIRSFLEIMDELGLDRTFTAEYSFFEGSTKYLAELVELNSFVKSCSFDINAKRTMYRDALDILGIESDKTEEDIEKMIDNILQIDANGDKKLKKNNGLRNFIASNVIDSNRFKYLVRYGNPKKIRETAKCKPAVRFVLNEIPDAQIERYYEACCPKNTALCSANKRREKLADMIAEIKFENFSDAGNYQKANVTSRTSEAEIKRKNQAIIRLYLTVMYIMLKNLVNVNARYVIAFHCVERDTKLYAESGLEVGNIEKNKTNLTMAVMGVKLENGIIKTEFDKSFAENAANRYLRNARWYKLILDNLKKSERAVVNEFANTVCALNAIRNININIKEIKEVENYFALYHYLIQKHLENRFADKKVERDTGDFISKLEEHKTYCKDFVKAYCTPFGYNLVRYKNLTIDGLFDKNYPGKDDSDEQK

B1: target 1 MT 5'PFS ACA 3'PFS UUU (mixed)
RNA 1: CACCCGUGCAAAAAUGCAGGGGUCUAAAACUGAGCGGAUAACCUCUCUAUGG
RNA 2: GGGAAUGGAUCCACAUCUACGAAUUCACACCAUAGAGAGGUUAUCCGCUCAUUUAGAUCGGAAGAGCACACGU
B2: target 1 MT 5'PFS GCA 3'PFS UGC (mixed)
RNA 1: B1 RNA 1
RNA 2: B1 RNA 2 with A27G, U53G, U54C
B3: target 1 MT 5'PFS GAA 3'PFS UAC (mixed)
RNA 1: B1 RNA 1
RNA 2: B1 RNA 2 with A27G, C28A, U53A, U54C
B4: target 1 MT 5'PFS GCG 3'PFS UAC (mixed)
RNA 1: B1 RNA 1
RNA 2: B1 RNA 2 with A27G, A29G, U53A, U54C
B5: target 1 MT 5'PFS UAU 3'PFS UCU (mixed)
RNA 1: B1 RNA 1
RNA 2: B1 RNA 2 with A27U, C28A, A29U, U53C
B6: target 1 MT 5'PFS CCU 3'PFS ACG (mixed)
RNA 1: B1 RNA 1
RNA 2: B1 RNA 2 with A27C, A29U, U52A, U53C, U54G
B7: target 1 MT 5'PFS CCG 3'PFS AGU (mixed)
RNA 1: B1 RNA 1
RNA 2: B1 RNA 2 with A27C, A29G, U52A, U53G
B8: target 1 MT 5'PFS AAG 3'PFS UGU (mixed)
RNA 1: B1 RNA 1
RNA 2: B1 RNA 2 with C28A, A29G, U53G
B9: target 1 MT 5'PFS ACC 3'PFS CCG (mixed)
RNA 1: B1 RNA 1
RNA 2: B1 RNA 2 with A29C, U52C, U53C, U54G
B10: target 1 MT 5'PFS GCA 3'PFS UGA (mixed)
RNA 1: B1 RNA 1
RNA 2: B1 RNA 2 with A27G, U53G, U54A
B11: target 1 insC 3' of 11,insA 3' of 5 (mixed)
RNA 1: B1 RNA 1
RNA 2: GGGAAUGGAUCCACAUCUACGAAUUCGUACCAUAGAGAGGUCUAUCCGACUCACCGAGAUCGGAAGAGCACACGU
B12: target 1 MT 5'PFS GGC 3'PFS AAU (mixed)
RNA 1: B1 RNA 1
RNA 2: B1 RNA 2 with A27G, C28G, A29C, U52A, U53A
B13: target 1 MT 5'PFS CUG 3'PFS UCU (mixed)
RNA 1: B1 RNA 1
RNA 2: B1 RNA 2 with A27C, C28U, A29G, U53C
B14: target 1 U10G,U19C (mixed)
RNA 1: B1 RNA 1
RNA 2: B1 RNA 2 with A27G, C28U, U33C, U42G, U52C, U53C, U54G
B15: target 1 MT 5'PFS UAG 3'PFS CAA (mixed)
RNA 1: B1 RNA 1
RNA 2: B1 RNA 2 with A27U, C28A, A29G, U52C, U53A, U54A
B16: target 1 MT 5'PFS GUU 3'PFS AAA (mixed)
RNA 1: B1 RNA 1
RNA 2: B1 RNA 2 with A27G, C28U, A29U, U52A, U53A, U54A
B17: target 1 MT 5'PFS CUG 3'PFS UCC (mixed)
RNA 1: B1 RNA 1
RNA 2: B1 RNA 2 with A27C, C28U, A29G, U53C, U54C
B18: target 1 MT 5'PFS CCG 3'PFS AGA (mixed)
RNA 1: B1 RNA 1
RNA 2: B1 RNA 2 with A27C, A29G, U52A, U53G, U54A
B19: target 1 MT 5'PFS GAA 3'PFS UAA (mixed)
RNA 1: B1 RNA 1
RNA 2: B1 RNA 2 with A27G, C28A, U53A, U54A
B20: target 1 MT 5'PFS GCA 3'PFS UGU (mixed)
RNA 1: B1 RNA 1
RNA 2: B1 RNA 2 with A27G, U53G
B21: target 1 MT 5'PFS CUG 3'PFS ACU (mixed)
RNA 1: B1 RNA 1
RNA 2: B1 RNA 2 with A27C, C28U, A29G, U52A, U53C
B22: target 1 MT 5'PFS CCU 3'PFS ACU (mixed)
RNA 1: B1 RNA 1
RNA 2: B1 RNA 2 with A27C, A29U, U52A, U53C
B23: target 1 MT 5'PFS GAA 3'PFS UAU (mixed)
RNA 1: B1 RNA 1
RNA 2: B1 RNA 2 with A27G, C28A, U53A
B24: target 1 MT 5'PFS GAA 3'PFS AGA (mixed)
RNA 1: B1 RNA 1
RNA 2: B1 RNA 2 with A27G, C28A, U52A, U53G, U54A
B25: target 1 MT 5'PFS GUU 3'PFS UCC (mixed)
RNA 1: B1 RNA 1
RNA 2: B1 RNA 2 with A27G, C28U, A29U, U53C, U54C
B26: target 1 MT 5'PFS GUU 3'PFS UCU (mixed)
RNA 1: B1 RNA 1
RNA 2: B1 RNA 2 with A27G, C28U, A29U, U53C
B27: target 1 MT 5'PFS AAG 3'PFS UGC (mixed)
RNA 1: B1 RNA 1
RNA 2: B1 RNA 2 with C28A, A29G, U53G, U54C
B28: target 1 G5A,C6A (mixed)
RNA 1: B1 RNA 1
RNA 2: B1 RNA 2 with A27G, C28U, C46A, G47A, U52C, U53C, U54G
B29: target 1 U8C,U11G (mixed)
RNA 1: B1 RNA 1
RNA 2: B1 RNA 2 with A27G, C28U, U41G, U44C, U52C, U53C, U54G
B30: target 1 MT 5'PFS GUU 3'PFS UCG (mixed)
RNA 1: B1 RNA 1
RNA 2: B1 RNA 2 with A27G, C28U, A29U, U53C, U54G
B31: target 1 MT 5'PFS GUU 3'PFS AAG (mixed)
RNA 1: B1 RNA 1
RNA 2: B1 RNA 2 with A27G, C28U, A29U, U52A, U53A, U54G
B32: target 1 MT 5'PFS UAG 3'PFS CAG (mixed)
RNA 1: B1 RNA 1
RNA 2: B1 RNA 2 with A27U, C28A, A29G, U52C, U53A, U54G
B33: target 1 MT 5'PFS GUG 3'PFS GUG (mixed)
RNA 1: B1 RNA 1
RNA 2: B1 RNA 2 with A27G, C28U, A29G, U52G, U54G
B34: target 1 MT 5'PFS GUG 3'PFS GUC (mixed)
RNA 1: B1 RNA 1
RNA 2: B1 RNA 2 with A27G, C28U, A29G, U52G, U54C
B35: target 1 MT 5'PFS GGC 3'PFS AAA (mixed)
RNA 1: B1 RNA 1
RNA 2: B1 RNA 2 with A27G, C28G, A29C, U52A, U53A, U54A
B36: target 1 MT 5'PFS UAU 3'PFS UCG (mixed)
RNA 1: B1 RNA 1
RNA 2: B1 RNA 2 with A27U, C28A, A29U, U53C, U54G
B37: target 1 MT 5'PFS GUU 3'PFS AAU (mixed)
RNA 1: B1 RNA 1
RNA 2: B1 RNA 2 with A27G, C28U, A29U, U52A, U53A
B38: target 1 MT 5'PFS GGC 3'PFS AAC (mixed)
RNA 1: B1 RNA 1
RNA 2: B1 RNA 2 with A27G, C28G, A29C, U52A, U53A, U54C
B39: target 1 MT 5'PFS UAG 3'PFS CAC (mixed)
RNA 1: B1 RNA 1
RNA 2: B1 RNA 2 with A27U, C28A, A29G, U52C, U53A, U54C
B40: target 1 MT 5'PFS GUU 3'PFS UCA (mixed)
RNA 1: B1 RNA 1
RNA 2: B1 RNA 2 with A27G, C28U, A29U, U53C, U54A
B41: target 1 MT 5'PFS UAG 3'PFS CAU (mixed)
RNA 1: B1 RNA 1
RNA 2: B1 RNA 2 with A27U, C28A, A29G, U52C, U53A

Biological target: T1, EsCas13d, nuclease-dead
Experiment: crRNA (strand 1, pre-loaded); Mg2+; 40 mM Tris-HCl pH 7.5, 150 mM NaCl, 6 mM MgCl2, 1 mM DTT, 0.1% Tween-20, 0.2 mg/ml BSA; 25 C; 10 min per concentration, then washed
Conditions: tags: His6-TwinStrep-SUMO cleaved; N-terminal SNAP kept (SNAP-Surface 488); label: 3' end held by stalled T7 RNA polymerase

| Binder | Kd [nM] |
| --- | --- |
| B1 | 5.35 ± 1.15 |
| B2 | 15.8 ± 2.95 |
| B3 | 40 ± 11 |
| B4 | 13.2 ± 2.3 |
| B5 | 32 ± 6.5 |
| B6 | 21 ± 6 |
| B7 | 10 ± 4.5 |
| B8 | 35.5 ± 10.5 |
| B9 | ~18.5 |
| B10 | 16.4 ± 2.25 |
| B11 | 7.9 ± 0.8 |
| B12 | 44.5 ± 18.5 |
| B13 | 3.55 ± 0.8 |
| B14 | 48 ± 8 |
| B15 | 51 ± 11 |
| B16 | 46.5 ± 13.5 |
| B17 | 4.75 ± 1.1 |
| B18 | 4.45 ± 1.5 |
| B19 | 23 ± 7.5 |
| B20 | 35 ± 7.5 |
| B21 | 5.55 ± 1.45 |

| Binder | Kd [nM] |
| --- | --- |
| B22 | 16.5 ± 5.5 |
| B23 | 27.5 ± 6 |
| B24 | 62 ± 21.5 |
| B25 | 14.8 ± 3.65 |
| B26 | 12.7 ± 1.4 |
| B27 | 51.5 ± 25 |
| B28 | 5.75 ± 0.22 |
| B29 | 27 ± 2.5 |
| B30 | 18.5 ± 2.7 |
| B31 | 37.5 ± 8.5 |
| B32 | 42.5 ± 13 |
| B33 | 8.9 ± 0.55 |
| B34 | 17 ± 2.6 |
| B35 | 52 ± 14 |
| B36 | 29 ± 7 |
| B37 | 22 ± 4.5 |
| B38 | 39 ± 13.5 |
| B39 | ~43 |
| B40 | 15.6 ± 2.1 |
| B41 | 65 ± 21 |
